# Columns and labels:
# Nav1.7 = molecular target: T1, Nav1.7 (Homo sapiens, UniProt Q15858); assay: cell-based; type: cell-based; conditions: 100% = no change; for Activity of Nav1.7 with peptide, expressed as a percentage of the reference compound: peptide at 0.2 μM; for Activity of Nav1.7 with peptide (percentage of the reference compound): peptide at 20 μM
# T1 construct: host or cells: HEK293 or CHO
# Protocol: (§1) This example describes a method for assaying ion channel activity in cells.
# […] HEK293 or CHO cells from the American Type Culture Collection (ATCC) were transfected with the appropriate ion channel before use. HEK293 cells were grown in Dulbecco's Modified Eagle Medium/Nutrient Mixture F-12, and CHO cells were cultured in Ham's F-12 media. All cultures were supplemented with 10% fetal bovine serum, 100 U/ml penicillin G, 100 μg/ml streptomycin sulfate, and the appropriate selection antibiotics. Prior to use, cells were washed twice with Hank's Balanced Salt Solution, and treated with Accutase cell detachment solution (Sigma-Aldrich). Cells were then washed. Peptides and controls were incubated with cells for at least five minutes.
# (§2) Percent inhibition was defined as: (1-(Ipeptide/Icontrol))×100%).
# (§3) Percent values were calculated using the following formula: % activation=(IPeptide/Icontrol)×100%, where IPeptide is the current produced by co-application a peptide with agonist, and Icontrol refers to the current produced by stimulation in control. Control used for each ion channel is the reference compound matched to a particular channel, as illustrated in TABLE 10 below.
# GABA = assay: Ion channel panel (IonWorks Barracuda): GABA; type: cell-based; conditions: 100% = no change, <100% = inhibition
# Protocol: as §1
# (§4) Peptides were screened in duplicate at final concentrations of 20 μM and 200 nM, as determined by amino acid analysis, and diluted into HEPES buffered physiological saline (HBPS). HEK293 or CHO cells from the American Type Culture Collection (ATCC) were transfected with the appropriate ion channel before use. HEK293 cells were grown in Dulbecco's Modified Eagle Medium/Nutrient Mixture F-12, and CHO cells were cultured in Ham's F-12 media. All cultures were supplemented with 10% fetal bovine serum, 100 U/ml penicillin G, 100 μg/ml streptomycin sulfate, and the appropriate selection antibiotics. Prior to use, cells were washed twice with Hank's Balanced Salt Solution, and treated with Accutase cell detachment solution (Sigma-Aldrich). Cells were then washed. Peptides and controls were incubated with cells for at least five minutes.
# as §2, §3
# Kv1.3 = molecular target: T2, Kv1.3 (Homo sapiens, UniProt P22001); assay: cell-based; type: cell-based; conditions: 100% = no change, <100% = inhibition
# T2 construct: host or cells: HEK293 or CHO
# Protocol: as §1, §4, §2, §3
# Kv1.2 = molecular target: T3, Kv1.2 (Homo sapiens, UniProt P16389); assay: cell-based; type: cell-based; conditions: 100% = no change, <100% = inhibition
# T3 construct: host or cells: HEK293 or CHO
# Protocol: as §1, §4, §2, §3
# Kv1.1 = molecular target: T4, Kv1.1 (Homo sapiens, UniProt Q09470); assay: cell-based; type: cell-based; conditions: 100% = no change, <100% = inhibition
# T4 construct: host or cells: HEK293 or CHO
# Protocol: as §1, §4, §2, §3
# NR2B = molecular target: T5, NR2B (Homo sapiens, UniProt Q13224); assay: Ion channel panel (IonWorks Barracuda): NR2B; type: cell-based; conditions: 100% = no change, <100% = inhibition
# T5 construct: host or cells: HEK293 or CHO
# Protocol: as §1, §4, §2, §3
# Cav2.2 = molecular target: T6, Cav2.2 (Homo sapiens, UniProt Q00975); assay: cell-based; conditions: 100% = no change, <100% = inhibition
# T6 construct: host or cells: HEK293 or CHO
# Protocol: as §1, §4, §2, §3
# Kv2.1 = molecular target: T7, Kv2.1 (Homo sapiens, UniProt Q14721); assay: cell-based; conditions: 100% = no change, <100% = inhibition
# T7 construct: host or cells: HEK293 or CHO
# Protocol: as §1, §4, §2, §3
# Cav2.1 = molecular target: T8, Cav2.1 (Homo sapiens, UniProt O00555); assay: cell-based; conditions: 100% = no change, <100% = inhibition
# T8 construct: host or cells: HEK293 or CHO
# Protocol: as §1, §4, §2, §3
# α3β4 = molecular target: T9, α3β4 (Homo sapiens, UniProt P30926+P32297); assay: Ion channel panel (IonWorks Barracuda): α3β4; type: cell-based; conditions: 100% = no change, <100% = inhibition
# T9 construct: host or cells: HEK293 or CHO
# Protocol: as §1, §4, §2, §3
# 5HT3a = molecular target: T10, 5HT3a (Homo sapiens, UniProt P46098); assay: Ion channel panel (IonWorks Barracuda): 5HT3a; type: cell-based
# T10 construct: host or cells: HEK293 or CHO
# T10 sequence (P46098 whole entry, looked up): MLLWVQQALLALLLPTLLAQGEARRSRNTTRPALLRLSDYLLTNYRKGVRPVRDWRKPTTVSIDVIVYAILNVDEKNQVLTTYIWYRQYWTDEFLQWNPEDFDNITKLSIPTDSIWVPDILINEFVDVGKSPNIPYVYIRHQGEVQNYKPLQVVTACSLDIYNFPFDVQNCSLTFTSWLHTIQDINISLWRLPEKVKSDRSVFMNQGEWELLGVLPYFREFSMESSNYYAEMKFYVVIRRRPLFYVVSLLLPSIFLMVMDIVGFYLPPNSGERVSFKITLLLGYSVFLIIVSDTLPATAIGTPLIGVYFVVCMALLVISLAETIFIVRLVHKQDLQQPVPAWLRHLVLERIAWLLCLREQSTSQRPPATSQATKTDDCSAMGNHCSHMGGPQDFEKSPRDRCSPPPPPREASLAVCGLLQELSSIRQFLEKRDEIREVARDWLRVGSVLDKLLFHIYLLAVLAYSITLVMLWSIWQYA
# Protocol: as §1, §4, §2, §3
# α4β2 = molecular target: T11, α4β2 (Homo sapiens, UniProt P17787+P43681); assay: Ion channel panel (IonWorks Barracuda): α4β2; type: cell-based; conditions: 100% = no change, <100% = inhibition
# T11 construct: host or cells: HEK293 or CHO
# Protocol: as §1, §4, §2, §3
# Kir2.1 = molecular target: T12, Kir2.1 (Homo sapiens, UniProt P63252); assay: Ion channel panel (IonWorks Barracuda): Kir2.1; type: cell-based; conditions: 100% = no change, <100% = inhibition
# T12 construct: host or cells: HEK293 or CHO
# Protocol: as §1, §4, §2, §3
# hERG = hERG (Homo sapiens, UniProt Q12809); assay: in vitro; conditions: 100% = no change, <100% = inhibition
# Protocol: as §1, §4, §2, §3
# Nav1.5 = Nav1.5 (Homo sapiens, UniProt Q14524); assay: in vitro; conditions: 100% = no change; for Activity of Nav1.5 with peptide, expressed as a percentage of the reference compound: peptide at 0.2 μM; for Activity of Nav1.5 with peptide (percentage of the reference compound): peptide at 20 μM
# Protocol: as §1, §4, §2, §3
# TRPV1 = molecular target: T13, TRPV1 (Homo sapiens, UniProt Q8NER1); assay: Ion channel panel (IonWorks Barracuda): TRPV1; type: cell-based; conditions: 100% = no change, <100% = inhibition
# T13 construct: host or cells: HEK293 or CHO
# Protocol: as §1, §4, §2, §3
# NR2A = molecular target: T14, NR2A (Homo sapiens, UniProt Q12879); assay: Ion channel panel (IonWorks Barracuda): NR2A; type: cell-based; conditions: 100% = no change, <100% = inhibition
# T14 construct: host or cells: HEK293 or CHO
# Protocol: as §1, §4, §2, §3
# TRPA1 = molecular target: T15, TRPA1 (Homo sapiens, UniProt O75762); assay: Ion channel panel (IonWorks Barracuda): TRPA1; type: cell-based; conditions: 100% = no change, <100% = inhibition
# T15 construct: host or cells: HEK293 or CHO
# Protocol: as §1, §4, §2, §3
# [1] = first of two Nav1.7 columns (probably TP1)
# [2] = second of two Nav1.7 columns (probably TP2)
# [3] = first of two Nav1.5 columns (probably TP1)
# [4] = second of two Nav1.5 columns (probably TP2)
# T1 sequence (Q15858 whole entry): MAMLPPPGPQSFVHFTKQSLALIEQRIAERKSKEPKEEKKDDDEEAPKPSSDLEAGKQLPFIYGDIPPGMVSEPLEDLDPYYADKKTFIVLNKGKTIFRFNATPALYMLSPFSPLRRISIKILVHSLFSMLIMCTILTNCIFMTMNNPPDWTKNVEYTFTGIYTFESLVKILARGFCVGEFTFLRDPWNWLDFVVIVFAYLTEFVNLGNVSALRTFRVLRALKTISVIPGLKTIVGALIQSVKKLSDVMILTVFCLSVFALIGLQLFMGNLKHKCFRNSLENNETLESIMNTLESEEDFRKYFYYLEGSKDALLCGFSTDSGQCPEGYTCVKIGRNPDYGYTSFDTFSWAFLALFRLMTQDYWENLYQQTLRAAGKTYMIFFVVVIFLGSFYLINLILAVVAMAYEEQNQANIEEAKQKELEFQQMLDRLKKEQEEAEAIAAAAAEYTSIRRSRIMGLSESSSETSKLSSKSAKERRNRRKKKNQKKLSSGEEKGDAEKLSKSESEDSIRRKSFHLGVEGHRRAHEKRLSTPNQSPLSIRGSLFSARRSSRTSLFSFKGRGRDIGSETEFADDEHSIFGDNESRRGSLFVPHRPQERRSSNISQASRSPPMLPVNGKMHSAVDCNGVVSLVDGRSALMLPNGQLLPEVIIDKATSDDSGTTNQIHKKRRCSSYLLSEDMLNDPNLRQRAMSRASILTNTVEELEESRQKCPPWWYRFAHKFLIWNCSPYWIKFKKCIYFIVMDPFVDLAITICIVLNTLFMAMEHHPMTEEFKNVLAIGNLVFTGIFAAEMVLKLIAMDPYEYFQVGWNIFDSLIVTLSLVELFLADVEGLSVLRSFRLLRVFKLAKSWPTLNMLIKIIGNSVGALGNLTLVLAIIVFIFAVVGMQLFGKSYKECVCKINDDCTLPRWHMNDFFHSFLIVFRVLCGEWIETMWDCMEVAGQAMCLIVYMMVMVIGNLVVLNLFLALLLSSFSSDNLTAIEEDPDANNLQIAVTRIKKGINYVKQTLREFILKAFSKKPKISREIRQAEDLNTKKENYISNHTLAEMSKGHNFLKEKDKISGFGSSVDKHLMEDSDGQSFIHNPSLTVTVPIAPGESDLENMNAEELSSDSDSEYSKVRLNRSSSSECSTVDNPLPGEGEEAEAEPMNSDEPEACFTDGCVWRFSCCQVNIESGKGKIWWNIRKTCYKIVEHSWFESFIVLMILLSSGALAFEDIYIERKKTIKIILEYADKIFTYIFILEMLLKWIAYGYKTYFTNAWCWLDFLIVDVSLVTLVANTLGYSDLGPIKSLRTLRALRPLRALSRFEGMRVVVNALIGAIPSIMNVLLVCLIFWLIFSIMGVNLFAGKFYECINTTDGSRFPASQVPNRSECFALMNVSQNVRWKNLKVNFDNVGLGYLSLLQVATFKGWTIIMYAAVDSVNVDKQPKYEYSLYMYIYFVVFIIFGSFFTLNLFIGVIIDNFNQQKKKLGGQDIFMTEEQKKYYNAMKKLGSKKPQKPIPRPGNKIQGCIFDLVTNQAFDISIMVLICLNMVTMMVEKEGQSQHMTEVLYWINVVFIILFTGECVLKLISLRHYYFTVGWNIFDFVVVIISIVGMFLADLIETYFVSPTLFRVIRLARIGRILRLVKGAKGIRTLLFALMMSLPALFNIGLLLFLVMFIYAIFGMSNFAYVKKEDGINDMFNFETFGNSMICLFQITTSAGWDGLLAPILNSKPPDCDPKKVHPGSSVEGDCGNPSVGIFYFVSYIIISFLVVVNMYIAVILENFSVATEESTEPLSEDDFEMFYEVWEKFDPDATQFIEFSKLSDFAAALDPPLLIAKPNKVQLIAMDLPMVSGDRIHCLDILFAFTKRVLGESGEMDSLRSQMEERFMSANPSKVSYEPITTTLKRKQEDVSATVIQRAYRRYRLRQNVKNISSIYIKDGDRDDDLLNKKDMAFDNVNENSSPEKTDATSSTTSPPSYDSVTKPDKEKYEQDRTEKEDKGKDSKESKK
# Sequence of Nav1.5 (Q14524 whole entry): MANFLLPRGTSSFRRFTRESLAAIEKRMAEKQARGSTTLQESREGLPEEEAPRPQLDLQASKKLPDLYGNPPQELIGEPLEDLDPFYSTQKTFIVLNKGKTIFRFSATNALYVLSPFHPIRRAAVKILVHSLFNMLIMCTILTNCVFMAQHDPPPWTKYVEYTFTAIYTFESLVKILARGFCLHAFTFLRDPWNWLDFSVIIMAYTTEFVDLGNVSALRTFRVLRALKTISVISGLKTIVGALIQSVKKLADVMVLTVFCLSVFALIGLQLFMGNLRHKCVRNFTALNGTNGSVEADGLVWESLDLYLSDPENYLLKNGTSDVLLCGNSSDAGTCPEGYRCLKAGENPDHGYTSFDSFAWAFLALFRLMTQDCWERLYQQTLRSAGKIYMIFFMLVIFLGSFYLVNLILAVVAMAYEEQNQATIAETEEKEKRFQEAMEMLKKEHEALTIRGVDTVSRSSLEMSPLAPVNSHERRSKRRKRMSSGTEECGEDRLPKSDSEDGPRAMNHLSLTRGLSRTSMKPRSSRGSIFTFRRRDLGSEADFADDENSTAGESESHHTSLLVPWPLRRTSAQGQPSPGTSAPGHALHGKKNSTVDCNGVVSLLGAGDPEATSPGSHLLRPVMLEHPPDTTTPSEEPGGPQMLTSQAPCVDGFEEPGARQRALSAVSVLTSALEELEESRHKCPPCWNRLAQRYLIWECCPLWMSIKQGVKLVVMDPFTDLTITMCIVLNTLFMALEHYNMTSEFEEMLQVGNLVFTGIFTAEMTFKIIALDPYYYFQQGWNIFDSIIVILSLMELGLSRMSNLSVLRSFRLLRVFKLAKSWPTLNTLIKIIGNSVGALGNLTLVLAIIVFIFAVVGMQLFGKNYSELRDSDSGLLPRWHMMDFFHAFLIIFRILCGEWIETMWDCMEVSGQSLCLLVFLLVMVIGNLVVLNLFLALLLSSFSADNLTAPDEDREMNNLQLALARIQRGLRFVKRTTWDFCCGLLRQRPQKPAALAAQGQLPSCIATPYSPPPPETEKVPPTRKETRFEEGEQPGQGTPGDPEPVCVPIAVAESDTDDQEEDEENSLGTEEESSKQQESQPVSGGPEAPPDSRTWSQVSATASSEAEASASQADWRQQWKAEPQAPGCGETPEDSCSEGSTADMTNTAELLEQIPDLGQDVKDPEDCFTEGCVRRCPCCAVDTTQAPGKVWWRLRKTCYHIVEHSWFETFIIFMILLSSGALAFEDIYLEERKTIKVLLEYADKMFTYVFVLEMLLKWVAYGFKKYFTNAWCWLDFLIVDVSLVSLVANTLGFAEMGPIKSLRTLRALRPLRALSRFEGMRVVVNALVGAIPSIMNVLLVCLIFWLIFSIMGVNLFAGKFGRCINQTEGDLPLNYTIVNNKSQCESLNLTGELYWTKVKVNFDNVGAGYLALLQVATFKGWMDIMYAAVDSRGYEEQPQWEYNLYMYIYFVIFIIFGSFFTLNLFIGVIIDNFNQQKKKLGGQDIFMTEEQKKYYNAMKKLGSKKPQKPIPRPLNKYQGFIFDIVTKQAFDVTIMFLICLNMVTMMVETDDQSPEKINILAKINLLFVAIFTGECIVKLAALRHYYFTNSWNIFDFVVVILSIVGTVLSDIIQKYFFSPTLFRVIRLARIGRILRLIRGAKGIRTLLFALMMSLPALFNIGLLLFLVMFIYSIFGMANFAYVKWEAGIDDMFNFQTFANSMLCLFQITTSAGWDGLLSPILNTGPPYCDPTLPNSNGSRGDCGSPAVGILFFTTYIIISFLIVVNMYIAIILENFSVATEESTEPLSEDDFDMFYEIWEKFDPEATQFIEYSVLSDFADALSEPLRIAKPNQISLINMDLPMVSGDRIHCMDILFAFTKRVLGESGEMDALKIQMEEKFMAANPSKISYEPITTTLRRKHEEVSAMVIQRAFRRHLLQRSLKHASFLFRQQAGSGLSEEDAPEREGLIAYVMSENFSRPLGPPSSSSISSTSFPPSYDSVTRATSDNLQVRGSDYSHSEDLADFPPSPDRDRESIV
# T15 sequence (O75762 whole entry): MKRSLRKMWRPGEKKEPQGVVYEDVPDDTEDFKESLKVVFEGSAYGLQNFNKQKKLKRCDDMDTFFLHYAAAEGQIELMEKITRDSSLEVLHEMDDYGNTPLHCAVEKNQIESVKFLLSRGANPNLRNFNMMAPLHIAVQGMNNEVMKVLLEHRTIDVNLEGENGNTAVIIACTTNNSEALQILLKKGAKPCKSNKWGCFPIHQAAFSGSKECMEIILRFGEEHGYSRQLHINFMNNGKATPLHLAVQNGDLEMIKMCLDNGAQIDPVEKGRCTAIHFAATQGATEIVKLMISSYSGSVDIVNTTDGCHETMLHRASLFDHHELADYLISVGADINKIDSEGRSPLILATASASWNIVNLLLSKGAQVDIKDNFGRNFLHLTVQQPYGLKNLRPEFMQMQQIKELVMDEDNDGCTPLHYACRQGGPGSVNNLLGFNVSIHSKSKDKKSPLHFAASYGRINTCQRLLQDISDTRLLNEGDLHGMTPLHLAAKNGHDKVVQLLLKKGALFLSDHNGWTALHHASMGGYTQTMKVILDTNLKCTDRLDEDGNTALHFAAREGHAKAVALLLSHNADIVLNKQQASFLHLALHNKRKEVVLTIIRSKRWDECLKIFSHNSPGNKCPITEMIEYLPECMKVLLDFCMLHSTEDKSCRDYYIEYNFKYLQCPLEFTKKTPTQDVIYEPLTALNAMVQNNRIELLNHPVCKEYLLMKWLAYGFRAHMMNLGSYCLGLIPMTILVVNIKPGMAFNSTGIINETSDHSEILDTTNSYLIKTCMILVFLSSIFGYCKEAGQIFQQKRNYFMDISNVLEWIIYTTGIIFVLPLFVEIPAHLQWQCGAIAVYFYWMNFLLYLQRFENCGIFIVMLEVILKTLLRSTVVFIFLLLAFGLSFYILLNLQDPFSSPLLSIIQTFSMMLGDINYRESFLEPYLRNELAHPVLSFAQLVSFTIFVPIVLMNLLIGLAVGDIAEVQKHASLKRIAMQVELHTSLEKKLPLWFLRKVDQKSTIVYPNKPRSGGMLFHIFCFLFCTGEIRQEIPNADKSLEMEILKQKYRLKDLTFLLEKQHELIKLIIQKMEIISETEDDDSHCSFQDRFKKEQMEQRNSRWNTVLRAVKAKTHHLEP
substance,measurement,setting,value
4 (GSSCAKPRENCNRMNILCCRGECVCPTFGDCFCYGD) [compound 4],"Activity of Nav1.7 with peptide, expressed as a percentage of the reference compound",Nav1.7; [1],95%
same,"Activity of Nav1.7 with peptide, expressed as a percentage of the reference compound",Nav1.7; [2],93%
same,Activity of Nav1.7 with peptide (percentage of the reference compound),Nav1.7; [1],96%
same,Activity of Nav1.7 with peptide (percentage of the reference compound),Nav1.7; [2],104%
same,"Activity of GABA with peptide, expressed as a percentage of the reference compound",GABA; peptide at 0.2 μM,121%
same,Activity of GABA with peptide (percentage of the reference compound),GABA; peptide at 20 μM,108%
same,"Activity of Kv1.3 with peptide, expressed as a percentage of the reference compound",Kv1.3; peptide at 0.2 μM,109%
same,Activity of Kv1.3 with peptide (percentage of the reference compound),Kv1.3; peptide at 20 μM,87%
same,"Activity of Kv1.2 with peptide, expressed as a percentage of the reference compound",Kv1.2; peptide at 0.2 μM,90%
same,Activity of Kv1.2 with peptide (percentage of the reference compound),Kv1.2; peptide at 20 μM,45%
same,"Activity of Kv1.1 with peptide, expressed as a percentage of the reference compound",Kv1.1; peptide at 0.2 μM,106%
same,Activity of Kv1.1 with peptide (percentage of the reference compound),Kv1.1; peptide at 20 μM,91%
same,"Activity of NR2B with peptide, expressed as a percentage of the reference compound",NR2B; peptide at 0.2 μM,117%
same,Activity of NR2B with peptide (percentage of the reference compound),NR2B; peptide at 20 μM,93%
same,"Activity of Cav2.2 with peptide, expressed as a percentage of the reference compound",Cav2.2; peptide at 0.2 μM,105%
same,Activity of Cav2.2 with peptide (percentage of the reference compound),Cav2.2; peptide at 20 μM,101%
same,"Activity of Kv2.1 with peptide, expressed as a percentage of the reference compound",Kv2.1; peptide at 0.2 μM,112%
same,Activity of Kv2.1 with peptide (percentage of the reference compound),Kv2.1; peptide at 20 μM,102%
same,"Activity of Cav2.1 with peptide, expressed as a percentage of the reference compound",Cav2.1; peptide at 0.2 μM,111%
same,Activity of Cav2.1 with peptide (percentage of the reference compound),Cav2.1; peptide at 20 μM,130%
same,"Activity of a3b4 with peptide, expressed as a percentage of the reference compound",α3β4; peptide at 0.2 μM,107%
same,Activity of a3b4 with peptide (percentage of the reference compound),α3β4; peptide at 20 μM,97%
same,Activity of 5HT3a with peptide (percentage of the reference compound),5HT3a,76%
same,"Activity of 5HT3a with peptide, expressed as a percentage of the reference compound",5HT3a,103%
same,"Activity of a4b2 with peptide, expressed as a percentage of the reference compound",α4β2; peptide at 0.2 μM,86%
same,Activity of a4b2 with peptide (percentage of the reference compound),α4β2; peptide at 20 μM,81%
same,"Activity of Kir2.1 with peptide, expressed as a percentage of the reference compound",Kir2.1; peptide at 0.2 μM,109%
same,Activity of Kir2.1 with peptide (percentage of the reference compound),Kir2.1; peptide at 20 μM,90%
same,"Activity of hERG with peptide, expressed as a percentage of the reference compound",hERG; peptide at 0.2 μM,110%
same,Activity of hERG with peptide (percentage of the reference compound),hERG; peptide at 20 μM,80%
same,"Activity of Nav1.5 with peptide, expressed as a percentage of the reference compound",Nav1.5; [3],117%
same,"Activity of Nav1.5 with peptide, expressed as a percentage of the reference compound",Nav1.5; [4],118%
same,Activity of Nav1.5 with peptide (percentage of the reference compound),Nav1.5; [3],98%
same,Activity of Nav1.5 with peptide (percentage of the reference compound),Nav1.5; [4],101%
same,"Activity of TRPV1 with peptide, expressed as a percentage of the reference compound",TRPV1; peptide at 0.2 μM,110%
same,Activity of TRPV1 with peptide (percentage of the reference compound),TRPV1; peptide at 20 μM,98%
same,"Activity of NR2A with peptide, expressed as a percentage of the reference compound",NR2A; peptide at 0.2 μM,106%
same,Activity of NR2A with peptide (percentage of the reference compound),NR2A; peptide at 20 μM,90%
same,"Activity of TRPA1 with peptide, expressed as a percentage of the reference compound",TRPA1; peptide at 0.2 μM,135%
same,Activity of TRPA1 with peptide (percentage of the reference compound),TRPA1; peptide at 20 μM,119%
